The values that follow come from the supplement of paper PMC7877785.

± gives the uncertainty stated by the source.

The series in a line: self-splicing fitness, log relative to wild type (ln ratio); higher = more splicing; Tetrahymena group I intron in knt gene, E. coli kanamycin selection, DiMSum; sequences stand for … in CUCUCU…GGAGGGAAAAGUUAUCAGGCAUGCACCUGGUAGCUAGUCUUUAAACCAAUAGAUUGCAUCGGUUUAAAAGGCAAGACCGUCAAAUUGCGGGAAAGGGGUCAACAGCCGUUCAGUACCAAGUCUCAGGGGAAACUUUGAGAUGGCCUUGCAAAGGGUAUGGUAAUAAGCUGACGGACAUGGUCCUAACCACGCAGCCAAGUCCUAAGUCAACAGAUCUUCUGUUGAUAUGGAUGCAGUUCACAGACUAAAUGUCGGUCGGGGAAGAUGUAUUCUUCUCAUAAGAUAUAGUCGGACCUCUCCUUAAUGGGAGCUAGCGGAUGAAGUGAUGCAACACUGGAGCCGCUGGGAACUAAUUUGUAUGCGAAAGUAUAUUGAUUAGUUUUGGAGUACUCGUGGUCG
Put shortly:
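Library with all eight P1ex-region intron nucleotides randomised, intron inside the knt kanamycin-resistance gene on pET-22b(+), in E. coli BL21(DE3). Cells grew overnight at 37°C or 30°C on LB agar with or without 25 μg/mL kanamycin (plus 100 μg/mL carbenicillin, 50 μM IPTG, 0.2% rhamnose), in six replicate transformations. Pooled colonies were amplicon-sequenced on Illumina HiSeq 2500. DiMSum fitness is the error-weighted combination of wild-type-normalised replicate fold changes, kanamycin versus none.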

As for UCCAAGCAAUAUUACGUUAC, the “self-splicing fitness (ln)” value is -4.16 ± 0.26 (30 °C) and -3.2 ± 0.32 (37 °C).
As for GACAAGCAAUAUUACGCGGG, the “self-splicing fitness (ln)” value is, setting by setting: (30 °C) -2.84 ± 0.095; (37 °C) -2.52 ± 0.14.
With GGCGAGCAAUAUUACGGGAU, where the note is “37 °C”, the “self-splicing fitness (ln)” value is -2.21 ± 0.47.
Consider AAGUAGCAAUAUUACGUUGA, for which the “self-splicing fitness (ln)” value (30 °C) was -3.64 ± 0.32 and the “self-splicing fitness (ln)” value (37 °C) was -2.29 ± 0.22.
In the case of CCUAAGCAAUAUUACGUCAC, for the setting “37 °C”, the “self-splicing fitness (ln)” value was -1.54 ± 0.49.
For the sequence GUAAAGCAAUAUUACGGUCG, the “self-splicing fitness (ln)” value (30 °C) was -0.377 ± 0.056 and the “self-splicing fitness (ln)” value (37 °C) is -0.0786 ± 0.088.
The corresponding values for CUUGAGCAAUAUUACGUUCG are -3.19 ± 0.3 and -1.71 ± 0.21.
Turning to ACGUAGCAAUAUUACGUUCC, the “self-splicing fitness (ln)” value reads like this: (30 °C) -3.29 ± 0.24; (37 °C) -2.04 ± 0.23.
The corresponding values for AGGCAGCAAUAUUACGCCAA are -0.987 ± 0.25 and -0.179 ± 0.25.
With ACCCAGCAAUAUUACGUUUA, the “self-splicing fitness (ln)” value reads like this: (30 °C) -1.57 ± 0.066; (37 °C) -1.01 ± 0.072.
GGUCAGCAAUAUUACGAAUU: the “self-splicing fitness (ln)” value reads like this: (30 °C) 0.104 ± 0.078; (37 °C) 0.599 ± 0.091.
With GCCGAGCAAUAUUACGAUAG, the “self-splicing fitness (ln)” value reads like this: (30 °C) -2.94 ± 0.21; (37 °C) -2.13 ± 0.21.
Turning to GUGUAGCAAUAUUACGCGAG, the “self-splicing fitness (ln)” value runs as follows: (30 °C) -3.67 ± 0.32; (37 °C) -0.997 ± 0.17.
Turning to UAUUAGCAAUAUUACGCUAA, for the setting “37 °C”, the “self-splicing fitness (ln)” value was -1.1 ± 0.46.
Regarding CGCGAGCAAUAUUACGAUGG, the “self-splicing fitness (ln)” value by setting is: (30 °C) -1.66 ± 0.12; (37 °C) -1.2 ± 0.14.
The corresponding values for AAGCAGCAAUAUUACGUUAG are -3.74 ± 0.18 and -2.52 ± 0.15.
Taken in the same sequence, the figures for UCCCAGCAAUAUUACGCGCC were -3.11 ± 0.35 and -1.29 ± 0.21.
The corresponding values for UUAAAGCAAUAUUACGUUAC are -3.66 ± 0.19 and -0.9 ± 0.2.
With UCGAAGCAAUAUUACGUGUA, the “self-splicing fitness (ln)” value was -2.47 ± 0.17 (30 °C) and -1.71 ± 0.18 (37 °C).
On to GGUAAGCAAUAUUACGCCAA, for which the “self-splicing fitness (ln)” value by setting is: (30 °C) -2.07 ± 0.23; (37 °C) -2.09 ± 0.24.
Regarding UUUGAGCAAUAUUACGCUGG, the “self-splicing fitness (ln)” value is, setting by setting: (30 °C) -2.04 ± 0.11; (37 °C) -2.01 ± 0.14.
Take CUAGAGCAAUAUUACGCAGA: the “self-splicing fitness (ln)” value by setting is: (30 °C) -2.47 ± 0.37; (37 °C) -3.6 ± 0.33.
Regarding UAUGAGCAAUAUUACGGGGU, the “self-splicing fitness (ln)” value by setting is: (30 °C) -2.98 ± 0.21; (37 °C) -2.2 ± 0.22.
Consider CCCCAGCAAUAUUACGUCGU, for which the “self-splicing fitness (ln)” value is, setting by setting: (30 °C) -3.19 ± 0.12; (37 °C) -2.05 ± 0.12.
Taken in the same sequence, the figures for UUAGAGCAAUAUUACGUUAA were -1.9 ± 0.13 and -0.197 ± 0.15.
Consider ACCUAGCAAUAUUACGAAUA, for which the “self-splicing fitness (ln)” value runs as follows: (30 °C) -2.75 ± 0.15; (37 °C) -2.94 ± 0.18.
Taken in the same sequence, the figures for UUUCAGCAAUAUUACGCGGG were -2.27 ± 0.12 and -2.35 ± 0.15.
The corresponding values for AGUAAGCAAUAUUACGAUUG are -2.97 ± 0.29 and -2.54 ± 0.29.
As for GGUUAGCAAUAUUACGGGCA, the “self-splicing fitness (ln)” value by setting is: (30 °C) -0.0835 ± 0.083; (37 °C) -0.182 ± 0.079.
As to UGUUAGCAAUAUUACGCAAU, the “self-splicing fitness (ln)” value by setting is: (30 °C) -4.18 ± 0.42; (37 °C) -2.67 ± 0.27.
As to ACUUAGCAAUAUUACGUACG, the “self-splicing fitness (ln)” value is -1.45 ± 0.099 (30 °C) and -1.04 ± 0.13 (37 °C).
The corresponding values for CCCUAGCAAUAUUACGAUAG are -2.74 ± 0.2 and -2.39 ± 0.27.
Consider CGCUAGCAAUAUUACGAUAA, for which the “self-splicing fitness (ln)” value is, setting by setting: (30 °C) -4.27 ± 0.36; (37 °C) -2.35 ± 0.32.
Taken in the same sequence, the figures for ACUGAGCAAUAUUACGUACG were -2.42 ± 0.22 and -2.07 ± 0.25.
